# Reference: PMC5615437, “A novel bifunctional acetyl xylan esterase/arabinofuranosidase from Penicillium chrysogenum P33 enhances enzymatic hydrolysis of lignocellulose” (Microbial Cell Factories, 2017)
# B1: rPcAxe (Penicillium chrysogenum) (protein)
# chain: AASSGCGKQPTLTNGVHTINGRQYILKVPDNYDSNKPHHLVFGLHWRGGNMNSVANGDSIQPWYGLESRAQGSAILVSPDGKNAGWANTNGEDVALIDAIIQQVEGDLCVDSSSRFATGFSWGGGMSYALACSRAKEFKAVSVLSGGLISGCEGGYDPIAYLGIHGIDDQVLPIDEGVTLANKFVGNNKCQPTNIGKPASGSGGFVRSDFQGCSKPVSFIAYDGGHVGAPLGVGSSLAPDATWEFFMAA
# Substrate: CC(=O)Oc1ccc([N+](=O)[O-])cc1
# Assay: 4-nitrophenol release, Lineweaver-Burk plot
# Type: biochemical, Penicillium chrysogenum
# Settings: pH 7, 40 °C, pNPA 0.2-2 mM
protein,measurement,value
B1,Km,465 µM
